Results on one molecule are retold here after patent publication US20190389966A1 (Regeneron, published 2019).

The assay concerns the target T1, MUC16 on OVCAR-3 cells (human, UniProt Q8WXI7 1-14507).
T1 construct: whole, on cells; also called Mucin 16
Kind of assay: FACS binding to OVCAR-3 cells. (In flow cytometry, cells or beads pass a laser one at a time.)

B1: BSMUC16/CD3-001 (bispecific antibody, V domains shown)
VH 1: QVQLVESGGGLVKPGGSLRLSCAASGFTFSNYYMSWVRQAPGKGLEWISYISGRGSTIFYADSVKGRITISRDNAKNSLFLQMNSLRAEDTAVYFCVKDRGGYSPYWGQGTLVTVSS
VH 2: EVQLVESGGGLVQPGRSLRLSCAASGFTFDDYSMHWVRQAPGKGLEWVSGISWNSGSKGYADSVKGRFTISRDNAKNSLYLQMNSLRAEDTALYYCAKYGSGYGKFYHYGLDVWGQGTTVTVSS
VL: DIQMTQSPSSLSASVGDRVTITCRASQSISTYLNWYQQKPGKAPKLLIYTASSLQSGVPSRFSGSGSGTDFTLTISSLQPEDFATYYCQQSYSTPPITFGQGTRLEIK
notes: It was biotinylated in the ELISA and DFO/89Zr-labelled at Gln 295 for PET; also called anti-MUC16xCD3 bispecific antibody; BSMUC16/CD3-0001
Take B1: the binding result is “binds”.
